In US20060084596A1 (UNIVERSITY OF SOUTH FLORIDA, published 2006):
Several values for one entry are separate records, joined by “and”; a condition that tells them apart may be missing. Identical values can stand only once. Like-named read-outs stand apart in the source and are kept apart here. Positions of bridges follow the written chain, without caps; N, C: chain ends.

B1: GFB-116 (designed binder)
peptide: GKGK
modifications: linker N-C via 3‑aminomethyl‑5‑aminobenzamide; also: four loops on But-Calix scaffold
B2: GFB-115 (designed binder)
peptide: GKGF
modifications: linker N-C via 3‑aminomethyl‑5‑aminobenzamide; also: four loops on But-Calix scaffold
B3: GFB-111 (designed binder)
peptide: GDGY
modifications: linker N-C via 3‑aminomethyl‑5‑aminobenzamide; also: four loops on But-Calix calix[4]arene scaffold
B4: GFB-113 (designed binder)
peptide: GDSD
modifications: linker N-C via 3‑aminomethyl‑5‑aminobenzamide; also: four loops on But-Calix calix[4]arene scaffold

Columns and labels:
[1] = biological target: acidic fibroblast growth factor (aFGF) (UniProt P05230 16-155, limits assumed); test: cell-based or functional assay
acidic fibroblast growth factor (aFGF), sequence (P05230 16-155 limits assumed): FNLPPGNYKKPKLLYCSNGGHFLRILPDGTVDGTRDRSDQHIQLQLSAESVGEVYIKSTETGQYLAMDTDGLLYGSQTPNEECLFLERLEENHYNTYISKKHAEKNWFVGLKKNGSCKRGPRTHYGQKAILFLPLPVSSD

[2] = biological target: T1, vascular endothelial growth factor (VEGF) (UniProt P15692-4 27-191, limits assumed); test: cell-based or functional assay
T1 sequence (P15692 other isoform, or with tags, fused parts or gaps limits assumed): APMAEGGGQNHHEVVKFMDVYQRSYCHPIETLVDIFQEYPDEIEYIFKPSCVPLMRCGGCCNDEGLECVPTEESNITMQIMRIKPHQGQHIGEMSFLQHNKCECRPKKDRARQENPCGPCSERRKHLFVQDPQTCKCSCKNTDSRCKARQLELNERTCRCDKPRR

[3] = biological target: T1, vascular endothelial growth factor …; test: cell-based or functional assay; remark: listed apart in the source
[4] = biological target: T2, platelet derived growth factor PDGF-BB (UniProt P01127 82-190); test: cell-based or functional assay
T2 sequence (P01127 82-190 limits assumed): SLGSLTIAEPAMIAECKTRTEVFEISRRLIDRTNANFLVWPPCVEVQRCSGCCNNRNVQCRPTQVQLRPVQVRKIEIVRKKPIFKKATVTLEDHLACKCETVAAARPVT

[5] = biological target: T2, platelet derived growth factor PDGF-BB; test: cell-based or functional assay; remark: listed apart in the source
[6] = biological target: insulin-like growth factor-1 (IGF-1) (UniProt P05019 49-118); test: cell-based or functional assay
insulin-like growth factor-1 (IGF-1) (UniProt P05019 49-118), sequence (P05019 49-118 limits assumed): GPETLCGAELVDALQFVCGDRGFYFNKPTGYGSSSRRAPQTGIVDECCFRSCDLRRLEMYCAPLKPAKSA

[7] = biological target: T2, platelet derived growth factor PDGF-BB; test: cell-based or functional assay; remark: listed apart in the source
[8] = biological target: T1, vascular endothelial growth factor …; test: inhibition of [125I]-VEGF binding to NIH 3T3 cells overexpressing Flk-1, GFB-111 10 µM
[9] = biological target: T2, platelet derived growth factor PDGF-BB; test: inhibition of [125I]-PDGF-BB binding to NIH 3T3 cells (PDGFR), 4 °C
[10] = biological target: T1, vascular endothelial growth factor …; test: cell-based or functional assay; remark: listed apart in the source
[11] = biological target: insulin-like growth factor-1 (IGF-1) (UniProt P05019); test: cell-based or functional assay
insulin-like growth factor-1 (IGF-1) (UniProt P05019), sequence (P05019 49-118 limits assumed): as above

Binder | (IC50) Inhibition, p42 [1] | (IC50) Inhibition, p44 [1] | IC50, Flk-1-Y-P [2] [µM] | IC50, p42 [2] | IC50, p44 [2] | IC50, PDGFR-Y-P [4] [µM] | IC50, p42/Erk2 [4] [µM] | % Inhibition at 100 µM, IGF1R-Y-P [6] [%] | % Inhibition at 100 µM, p42 [6] [%] | % Inhibition at 100 µM, p44 [6] [%] | IC50, PDGFR-Y-P [7] [µM] | IC50, p42/Erk2 [7] [µM] | other results
B1 | 99.2 µM per head; likely % and 99.6 µM per head; likely % and 102 µM per head; likely % and 99.7 µM per head; likely % | 97.5 µM per head; likely % and 97.2 µM per head; likely % and 116 µM per head; likely % and 99.9 µM per head; likely % | 0.3 | 5 µM | 5 µM | 40 | 28 |  |  |  |  |  | (IC50) Inhibition, p42 (mean) [1]: 100 µM per head; likely %; (IC50) Inhibition, p44 (mean) [1]: 103 µM per head; likely %; IC50, VEGF-stimulated flk-1 tyrosine phosphorylation [3]: 3000 µM
B2 | -21 µM per head; likely % | -23.9 µM per head; likely % |  | 5 µM and 10 µM | 5 µM and 10 µM |  |  | -38.3 | -12.4 | 51.9 | > 50 | > 50 | IC50, PDGF-BB-stimulated PDGF receptor tyrosine autophosphorylation [5]: 50 µM
B3 |  | 68 µM per head; likely % and 51.8 µM per head; likely % |  |  |  | 0.25 | 2.6 |  |  |  |  |  | inhibition of [125I]-VEGF binding at 10 µM GFB-111 [8]: 50%; IC50 [9]: 0.25 µM; IC50, Flk-1-Y-P [10]: 5 µM; IC50, VEGF-stimulated Flk-1 tyrosine phosphorylation and MAPK activation [10]: 10 µM; IC50, p42 [10]: 10 µM; IC50, p44 [10]: 10 µM; % Inhibition at 100 µM, IGF1R-Y-P [11]: -12.4%; % Inhibition at 100 µM, p42 [11]: -18.4%; % Inhibition at 100 µM, p44 [11]: 10.7%; IC50, PDGF-BB stimulated DNA synthesis ([3H]-thymidine incorporation) [4]: 6.5 µM; IC50, PDGF-dependent activation of Erk1 [4]: 0.8 µM; IC50, PDGF-dependent activation of Erk2 [4]: 1.2 µM; PDGF-BB stimulation of receptor tyrosine phosphorylation, complete block [4]: 3 µM
B4 | 53.6 µM per head; likely % | 64.3 µM per head; likely % | < 10 | 10 µM | 10 µM |  |  | -18.9 | -31.4 | 18.7 | 2.8 | 30 | 
